According to the supplement of paper PMC10567573:
± gives the standard deviation.

Test: protein stability index of a GFP-peptide fusion (GPS, HEK-293T) (PSI 1-6); higher = more stable
Conditions: c terminus: a fixed tail appended
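Further: 24-mer peptide tiles fused after GFP, lentivirally expressed, FACS-sorted into six equal bins by GFP/DsRed ratio, decoded by Illumina sequencing, PSI is the read-weighted mean bin number.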

Sequence | protein stability index (treatment: DMSO) | protein stability index (treatment: MLN4924 1 uM, 8 h)
PMVTSPREEQQLLASTSKPVVKLL [KCTD13] | 4.26 ± 0.32 | 4.25 ± 0.11
DAPPVELQLLHECSPSQMDLLCAQ [FANCE] | 4.31 ± 0.054 | 4.63 ± 0.25
AVGGRNAAGELPTVECYNPRTNEW [KLHL13] | 4.2 ± 0.13 | 4.33 ± 0.13
MSLVLHGNNLLVFGGTGIPFGESN [KLHDC10] | 2.74 ± 0.69 | 2.81 ± 0.52
YQLADWCLHHICTNYNNVCRKFPR [RHOBTB2] | 2.25 ± 0.52 | 2.23 ± 0.14
RRRGPRNKKRGWRRLAQEPLGLEV [NOP53] | 3.65 ± 0.18 | 3.73 ± 0.4
RTPEILKKALSGLSSRWKNWWIRG [CDS1] | 2.49 ± 0.86 | 2.26 ± 0.73
FDIQKIMQEKNPVHVIGVEEPSVG [ZNF8] | 4.07 ± 0.39 | 4 ± 0.4
YFTNRKVNSVCWASLNHLDSHILL [DCAF4] | 2.82 ± 0.56 | 2.42 ± 0.21
LGTELAERQGNGQQAMSLAILRVI [KCNA3] | 2.42 ± 0.19 | 2.52 ± 0.12
FDIRILMAKSVKYTVNFLEAKEGD [CARM1] | 2.27 ± 0.28 | 2.33 ± 0.33
TVRGATGIFPLSFVKILKDFPEED [NCF4] | 3.43 ± 0.51 | 3.57 ± 0.4
SKLAQLTLEQILEHLDNLRLNLTN [INTS3] | 2.3 ± 0.39 | 2.2 ± 0.21
EVKGTLEGDVCGVEPPGPGDTVVQ [PBXIP1] | 5.48 ± 0.23 | 5.37 ± 0.11
YVDIHTGLSGSGVAFVCAFSEALA [PYCR3] | 2.72 ± 1.2 | 2.4 ± 1
LEQMGALAVRGSRRERELERRELA [ZBED3] | 5 ± 0.37 | 4.76 ± 0.34
FPRMLLVDRLPGLQGALDLLAVLC [ZSWIM9] | 2.29 ± 0.18 | 2.25 ± 0.084
RIDELIESGKEEGMKIDLIDGKGR [KMT5A] | 4.96 ± 0.23 | 4.85 ± 0.33
RRSRDPGYDHLWDETLSSSHQKCP [PLEKHN1] | 3.81 ± 0.32 | 4.04 ± 0.13
LELAQFHNAHQLAAWCLHHICTNY [RHOBTB1] | 2.7 ± 0.48 | 2.59 ± 0.43
VHYMIHEPEPHILLFRRPLPKKPK [CKS1B] | 2.39 ± 0.23 | 2.57 ± 0.35
EESYYCRCHRGYTLDPNGKTCSRV [MATN2] | 2.82 ± 0.53 | 3.09 ± 0.55
ESSNDFGPYEGGGPVAGLDDSGGP [ZBTB22] | 5.03 ± 0.42 | 5 ± 0.13

Sequence | protein stability index (treatment: DMSO) | protein stability index (treatment: MLN4924 1 uM, 8 h)
CCSRYLCMGAMSLFLPCLLCYPPA [SPRY1] | 2.82 ± 0.47 | 2.58 ± 0.63
MVIQLLAIMCVSCICWSPFLVTMA [PTGFR] | 3.11 ± 0.45 | 3.22 ± 0.36
PYTPPATSHRRVTDVRGLEEFLSA [PLEKHN1] | 3.98 ± 0.19 | 3.91 ± 0.35
LIVTSLLLLPGLNQHGIILKYIGM [ARL6IP1] |  | 3.15 ± 0.81
QNLLKELQDLALQGAKERAHQQKK [CHGA] | 4.75 ± 0.23 | 4.52 ± 0.14
VSQLYPESIVPIPSSNEEIRLVDD [INTS4] | 4.92 ± 0.18 | 4.88 ± 0.081
QCNICGKCFSCNSNLHRHQRTHTG [ZNF263] | 4.44 ± 0.13 | 4.63 ± 0.29
SLESEEEEYPGITAEDSNDIYILP [BCL2L13] | 5.06 ± 0.22 | 5.05 ± 0.23
EGAQLKKVEQNSRPVSCSGRDALL [WASL] | 4.53 ± 0.39 | 4.72 ± 0.48
DSGDSKDIRLTLMEEVLLLGLKDK [GOLPH3L] | 3.24 ± 0.19 | 3.25 ± 0.34
RNGQWSEPPKCLDPCVISQEIMEK [CFHR2] | 4.24 ± 0.063 | 4.07 ± 0.24
QLVSFQKLKLTNNHLDPFGHIILN [TBX5] | 2.33 ± 0.39 | 2.23 ± 0.33
EDLAQKLNLEEDRIQIWFQNRRAK [HESX1] | 4.12 ± 0.55 | 4.11 ± 0.47
ETYIHLLAMKIKVGSDDLERIEAR [PSD2] | 2.26 ± 0.13 | 2.5 ± 0.44
RSPSGSLRSARGSRGGTRGWLPSH [RBMY1A1] | 3.95 ± 0.18 | 4.07 ± 0.17
YRQHCTLELGSYIKDLSVVHSDLS [CTDNEP1] | 2.4 ± 0.41 | 2.34 ± 0.25
GRCIHAGCDRIIGSKKKFDKCMVC [ADAMTS4] | 3.66 ± 0.41 | 3.56 ± 0.15
QPVQSKPQKASAPAADPPRYTFAP [PDLIM7] | 4.37 ± 0.27 | 4.44 ± 0.3
MYFSSLFPYVVLACFLVRGLLLRG [SLC6A17] | 2.9 ± 0.65 | 2.65 ± 0.72
EKASWLGEQPQFWSKTQVLDWISY [ELF3] | 2.33 ± 0.3 | 2.16 ± 0.096
GIPWEAGARQISYSIPEELEKGSF [PCDHGA10] | 4.24 ± 0.059 | 3.87 ± 0.34
GVSANASKAWHQKSHFQNSREWSG [PBXIP1] | 3.22 ± 0.33 | 3.23 ± 0.3
WLMTYVGAVFNGITLLILAELLIF [RTN3] | 2.49 ± 0.28 | 
